From article PMC2705653 (Molecular cell, 2009)
Where a chain is given by its changes, count along the chain named.

T1: Chp1 chromodomain (residues 15-75) for crystallization (S. pombe, UniProt Q10103 15-75)
T1 sequence (looked up): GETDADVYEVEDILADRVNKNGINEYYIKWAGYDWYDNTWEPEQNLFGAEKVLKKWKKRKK

T2: Swi6 V82E (S. pombe, UniProt P40381 1-328, V82E)
T2 sequence (looked up): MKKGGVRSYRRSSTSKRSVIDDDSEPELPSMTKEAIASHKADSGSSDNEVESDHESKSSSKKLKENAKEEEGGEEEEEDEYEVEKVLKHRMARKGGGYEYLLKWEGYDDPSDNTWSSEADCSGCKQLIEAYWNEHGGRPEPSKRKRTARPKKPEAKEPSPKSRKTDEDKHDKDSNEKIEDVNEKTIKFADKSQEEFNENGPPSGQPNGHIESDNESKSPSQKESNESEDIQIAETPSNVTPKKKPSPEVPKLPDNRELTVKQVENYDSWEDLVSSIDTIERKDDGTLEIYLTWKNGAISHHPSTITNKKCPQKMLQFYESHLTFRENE

T3: Swi6 E80V V82E (S. pombe, UniProt P40381 1-328, E80V | V82E)
T3 sequence (looked up): T2 sequence (looked up) with E80V

T4: Chp1 chromodomain E23V,V24M (S. pombe, UniProt Q10103 9-76, E23V | V24M)
T4 sequence (looked up): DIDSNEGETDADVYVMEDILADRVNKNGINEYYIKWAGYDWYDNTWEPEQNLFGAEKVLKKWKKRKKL

T5: Swi6, full length, wild type (S. pombe, UniProt P40381 1-328)
T5 sequence (looked up): T2 sequence (looked up) with E82V

T6: H3K9me3 peptide (isothermal titration calorimetry) (trimethyl-lysine at 9)
T6 chain: ARTKQTARKSTGGKAY

B1: Chp1 chromodomain, wild type (for binding studies) (domain or fragment, S. pombe, UniProt Q10103 9-76, looked up)
chain: T4 sequence (looked up) with V15E, M16V

Experiments:
[1] = target: T1, Chp1 chromodomain (residues 15-75) for …; experiment: crystal structure
[2] = target: T2, Swi6 V82E; experiment: fluorescence polarisation
[3] = target: T3, Swi6 E80V V82E; experiment: fluorescence polarisation
[4] = target: Clr4 chromodomain (residues 1-70) (S. pombe, UniProt O60016 1-70); experiment: fluorescence polarisation
[5] = target: T4, Chp1 chromodomain E23V,V24M; experiment: fluorescence polarisation
[6] = target: T5, Swi6, full length, wild type; experiment: fluorescence polarisation
[7] = target: T6, H3K9me3 peptide (isothermal titration …); experiment: ITC

Chain of Clr4 chromodomain (residues 1-70) (O60016 1-70): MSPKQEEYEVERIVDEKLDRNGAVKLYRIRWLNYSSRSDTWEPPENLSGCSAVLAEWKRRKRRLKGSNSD

| Binder | binding result [1] | Kd [2] | Kd [3] | Kd [4] | Kd [5] | Kd [6] | fold higher affinity than Swi6 [7] |
| --- | --- | --- | --- | --- | --- | --- | --- |
| ARTKQTARKSTGGKAY (trimethyl-lysine at 9) [H3K9me3 peptide (crystallization)] | binds |  |  |  |  |  |  |
| ARTKQTARKSTGGKAY (trimethyl-lysine at 9) [H3K9me3 peptide (fluorescence polarization)] |  | 1040 ± 100 nM | 610 ± 120 nM | 600 ± 80 nM | 14700 nM | 3340 ± 550 nM |  |
| B1 |  |  |  |  |  |  | ≥ 5 fold |
| ARTKQTARKSTGGKAY (dimethyl-lysine at 9; fluorescein (position not given)) [fluorescein labeled H3K9me2 peptide] |  | 2190 ± 130 nM | 1070 ± 30 nM | 2860 ± 270 nM |  | 10300 ± 1690 nM |  |
